Assays:
[1] = biological target: T1, GST–human PPARγ (full-length PPARγ–GST fusion protein) (human, UniProt P37231 1-505); assay: pull-down
T1 sequence (looked up): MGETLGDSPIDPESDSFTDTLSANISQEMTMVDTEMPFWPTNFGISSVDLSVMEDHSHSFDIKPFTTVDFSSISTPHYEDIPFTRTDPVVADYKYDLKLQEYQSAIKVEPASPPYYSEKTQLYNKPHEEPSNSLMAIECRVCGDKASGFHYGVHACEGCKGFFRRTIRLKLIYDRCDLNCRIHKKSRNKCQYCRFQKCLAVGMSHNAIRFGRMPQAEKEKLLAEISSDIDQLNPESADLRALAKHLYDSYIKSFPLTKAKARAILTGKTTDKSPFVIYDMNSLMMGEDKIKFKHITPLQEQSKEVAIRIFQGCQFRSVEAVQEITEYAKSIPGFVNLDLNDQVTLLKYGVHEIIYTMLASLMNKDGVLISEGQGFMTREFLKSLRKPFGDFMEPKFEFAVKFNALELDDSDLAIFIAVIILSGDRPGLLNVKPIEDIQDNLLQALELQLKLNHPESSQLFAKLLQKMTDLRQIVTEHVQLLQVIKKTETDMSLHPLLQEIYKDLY

[2] = biological target: T1, GST–human PPARγ (full-length PPARγ–GST …); assay: pull-down; remark: listed apart in the source

fold binding relative to the vehicle control, with 50 μM Pio [1]: 17 fold
fold binding relative to the vehicle control, with 50 μM FPP [2]: 6.1 fold
fold binding relative to the vehicle control, with 100 μM FPP [2]: 15 fold
B1: SRC-1-S2, a truncated SRC-1 (steroid receptor co-activator-1) protein (amino acids 623–770) (domain or fragment, human, UniProt Q15788 623-770, looked up)
chain: DSKYSQTSHKLVQLLTTTAEQQLRHADIDTSCKDVLSCTGTSNSASANSSGGSCPSSHSSLTERHKILHRLLQEGSPSDITTLSVEPDKKDSASTSVSVTGQVQGNSSIKLELDASKKKESKDHQLLRYLLDKDEKDLRSTPNLSLDD

— publication PMC3253524 (Biochemical Journal, 2011)
